# T1: Endogenous murine CD206 on M2-polarized bone marrow-derived macrophages (mouse, UniProt Q61830 20-1456)
# T1 construct: whole, on cells; also called endogenous CD206 in murine macrophages; CD206 of M2 BMDMs
# T1 sequence (looked up): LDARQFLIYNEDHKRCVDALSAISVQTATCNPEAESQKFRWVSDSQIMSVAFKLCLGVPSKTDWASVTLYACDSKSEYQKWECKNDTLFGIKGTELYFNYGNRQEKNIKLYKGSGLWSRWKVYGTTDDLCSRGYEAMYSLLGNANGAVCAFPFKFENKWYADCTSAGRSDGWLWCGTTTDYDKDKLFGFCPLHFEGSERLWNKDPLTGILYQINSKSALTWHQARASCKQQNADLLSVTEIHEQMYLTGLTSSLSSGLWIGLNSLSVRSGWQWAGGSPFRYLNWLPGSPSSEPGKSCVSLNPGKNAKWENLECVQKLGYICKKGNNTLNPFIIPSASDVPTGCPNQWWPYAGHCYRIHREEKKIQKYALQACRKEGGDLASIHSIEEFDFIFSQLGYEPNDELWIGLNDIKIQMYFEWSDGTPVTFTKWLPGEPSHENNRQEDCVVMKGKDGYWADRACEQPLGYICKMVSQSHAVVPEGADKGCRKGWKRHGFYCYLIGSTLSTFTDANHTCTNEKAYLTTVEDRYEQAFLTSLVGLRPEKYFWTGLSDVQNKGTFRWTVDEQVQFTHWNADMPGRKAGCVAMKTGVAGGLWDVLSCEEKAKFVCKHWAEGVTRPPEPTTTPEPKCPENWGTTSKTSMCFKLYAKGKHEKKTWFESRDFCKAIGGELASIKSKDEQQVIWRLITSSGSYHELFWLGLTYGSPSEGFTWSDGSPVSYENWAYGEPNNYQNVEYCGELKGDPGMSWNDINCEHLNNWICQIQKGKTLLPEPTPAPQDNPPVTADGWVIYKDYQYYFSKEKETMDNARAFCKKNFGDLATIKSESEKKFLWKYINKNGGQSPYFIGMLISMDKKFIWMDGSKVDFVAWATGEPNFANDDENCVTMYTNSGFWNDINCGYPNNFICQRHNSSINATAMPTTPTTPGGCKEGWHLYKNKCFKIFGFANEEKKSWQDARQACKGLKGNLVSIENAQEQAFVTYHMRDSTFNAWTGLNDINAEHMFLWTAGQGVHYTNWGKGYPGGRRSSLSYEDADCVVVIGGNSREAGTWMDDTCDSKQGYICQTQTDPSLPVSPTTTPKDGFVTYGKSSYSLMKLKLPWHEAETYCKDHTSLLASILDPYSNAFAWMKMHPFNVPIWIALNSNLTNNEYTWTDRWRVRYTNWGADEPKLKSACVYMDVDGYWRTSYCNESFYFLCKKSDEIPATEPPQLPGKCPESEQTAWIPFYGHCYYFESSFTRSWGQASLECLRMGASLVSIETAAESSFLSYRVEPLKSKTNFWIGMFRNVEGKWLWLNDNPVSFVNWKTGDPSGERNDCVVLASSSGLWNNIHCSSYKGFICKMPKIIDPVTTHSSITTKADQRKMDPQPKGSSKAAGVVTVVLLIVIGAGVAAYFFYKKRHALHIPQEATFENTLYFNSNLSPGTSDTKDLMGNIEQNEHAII
# B1: Recombinant human CD206 (MRC1/CD206) (receptor, UniProt P22897 19-1383, looked up)
# chain: LLDTRQFLIYNEDHKRCVDAVSPSAVQTAACNQDAESQKFRWVSESQIMSVAFKLCLGVPSKTDWVAITLYACDSKSEFQKWECKNDTLLGIKGEDLFFNYGNRQEKNIMLYKGSGLWSRWKIYGTTDNLCSRGYEAMYTLLGNANGATCAFPFKFENKWYADCTSAGRSDGWLWCGTTTDYDTDKLFGYCPLKFEGSESLWNKDPLTSVSYQINSKSALTWHQARKSCQQQNAELLSITEIHEQTYLTGLTSSLTSGLWIGLNSLSFNSGWQWSDRSPFRYLNWLPGSPSAEPGKSCVSLNPGKNAKWENLECVQKLGYICKKGNTTLNSFVIPSESDVPTHCPSQWWPYAGHCYKIHRDEKKIQRDALTTCRKEGGDLTSIHTIEELDFIISQLGYEPNDELWIGLNDIKIQMYFEWSDGTPVTFTKWLRGEPSHENNRQEDCVVMKGKDGYWADRGCEWPLGYICKMKSRSQGPEIVEVEKGCRKGWKKHHFYCYMIGHTLSTFAEANQTCNNENAYLTTIEDRYEQAFLTSFVGLRPEKYFWTGLSDIQTKGTFQWTIEEEVRFTHWNSDMPGRKPGCVAMRTGIAGGLWDVLKCDEKAKFVCKHWAEGVTHPPKPTTTPEPKCPEDWGASSRTSLCFKLYAKGKHEKKTWFESRDFCRALGGDLASINNKEEQQTIWRLITASGSYHKLFWLGLTYGSPSEGFTWSDGSPVSYENWAYGEPNNYQNVEYCGELKGDPTMSWNDINCEHLNNWICQIQKGQTPKPEPTPAPQDNPPVTEDGWVIYKDYQYYFSKEKETMDNARAFCKRNFGDLVSIQSESEKKFLWKYVNRNDAQSAYFIGLLISLDKKFAWMDGSKVDYVSWATGEPNFANEDENCVTMYSNSGFWNDINCGYPNAFICQRHNSSINATTVMPTMPSVPSGCKEGWNFYSNKCFKIFGFMEEERKNWQEARKACIGFGGNLVSIQNEKEQAFLTYHMKDSTFSAWTGLNDVNSEHTFLWTDGRGVHYTNWGKGYPGGRRSSLSYEDADCVVIIGGASNEAGKWMDDTCDSKRGYICQTRSDPSLTNPPATIQTDGFVKYGKSSYSLMRQKFQWHEAETYCKLHNSLIASILDPYSNAFAWLQMETSNERVWIALNSNLTDNQYTWTDKWRVRYTNWAADEPKLKSACVYLDLDGYWKTAHCNESFYFLCKRSDEIPATEPPQLPGRCPESDHTAWIPFHGHCYYIESSYTRNWGQASLECLRMGSSLVSIESAAESSFLSYRVEPLKSKTNFWIGLFRNVEGTWLWINNSPVSFVNWNTGDPSGERNDCVALHASSGFWSNIHCSSYKGYICKRPKIIDAKPTHELLTTKADTRKMDPSK
# notes: Bought protein; also called recombinant MRC1/CD206; rMRC1/CD206
# Experiments:
# [1] = molecular target: T1, Endogenous murine CD206 on M2-polarized …; test: cellular thermal shift assay (CETSA) on M2-polarized macrophages
# Method: The target engagement of the peptides in macrophages was assessed using the cellular thermal shift assay (CETSA) following the Jafari et al. protocol with minor modifications. […] After treatment, cells were collected by centrifugation for 5 min at 300×g and re-suspended in 600 μL DMEM. […] Samples were centrifuged at 20,000×g for 20 min at 4° C., and the supernatant was subsequently analyzed by western blot using 12-230 kDa Peggy Sue separation module (ProteinSimple, Cat #, SM-S001) and Peggy Sue instrument (Protein Simple) with following settings: electrophoresis 250 volts for 45 min; blocking, 23 min; primary antibody, 30 min; secondary antibody, 30 min. Quantitative analysis of CD206 level was performed using anti-CD206 antibody at 1:70 concentration multiplexed with anti-SOD1 antibody at 1:300 dilution, as internal control for normalization, and Compass software (ProteinSimple, San Jose, Calif.).
# [2] = molecular target: B1; test: microscale thermophoresis, label-free, recombinant CD206
# Method: Specifically, two-fold serial dilutions of the peptides were prepared in PBS and incubated with the same volume of 250 nM recombinant human and mouse CD206 in PBS. After a 5 min incubation at room temperature (RT), measurements were carried out in standard capillaries using a Monolith NT. Labelfree instrument (Nanotemper Technologies) with 40% LED excitation power, 40% IR-laser power, and laser on and off times of 30 s and 5 s, respectively. KD values were calculated by fitting the T-Jump signal of the thermograph using MOAffinity analysis software (Nanotemper Technologies).
# [3] = molecular target: the molecule itself; test: small-angle X-ray scattering (SAXS), self-association
# Method: SAXS data was collected at the 12ID-B beamline of the Advanced Photon Source (APS), Argonne National Laboratory, Lemont, Ill. […] Concentration series measurements for CD206 in buffer containing 50 mM Hepes, 100 mM NaCl, 1 mM DTT were carried out to extrapolate the data to infinite dilution for removing the scattering contribution due to interparticle interactions (concentration effect). Thirty 2D-image frames were recorded for sample solution and their matching buffer using a flow cell, with the exposure time of 0.75-1 sec to minimize radiation damage and to yield optimal signal-to-noise ratio. The 2D images were reduced to 1D scattering profiles and averaged using the Matlab software package at the beamlines.
# The buffer background subtraction and intensity extrapolation to infinite dilution were carried out using MatLab script developed by 12-ID-B beamline. The radius of gyration (Rg) was generated from Guinier plot in the range of qRg<1.3. For comparison, Rg was also calculated in real and reciprocal spaces using program GNOM (https://www.embl-hamburg.de/biosaxs/manuals/gnom.html). The pair-distance distribution function P(r) and maximum dimension (Dmax) were also calculated using GNOM. […] Based on the silico models of CD206 monomer derived from iTASSER, the fit of dimer of CD206 to SAXS experimental data were calculated using the program CORAL.
Binder,binding result [1],Kd [2] [µM],binding result [3]
KARKAAKRAF (Designed as a control to test the impact of hydrophobicity on activity) [RP-426],no binding (tested: 100 µM),85,–
B1,–,–,binds

# Reference: patent US20220062373A1 (published 2022)
